Patent US20180282412A1

Key:
[1] = target: PD-1-Fc fusion protein (extracellular region of human PD-1 fused to human Fc) (human); experiment: ELISA on coated PD-1-Fc, HRP anti-human kappa
[2] = target: PD-1-Fc fusion protein (extracellular region of human PD-1 fused to human Fc) (human); experiment: SPR (Biacore), PD-1-Fc immobilized, antibody as analyte

PD-1-Fc fusion protein (extracellular region of human PD-1 fused to human Fc) (human), sequence (chain, as listed by the source limits assumed): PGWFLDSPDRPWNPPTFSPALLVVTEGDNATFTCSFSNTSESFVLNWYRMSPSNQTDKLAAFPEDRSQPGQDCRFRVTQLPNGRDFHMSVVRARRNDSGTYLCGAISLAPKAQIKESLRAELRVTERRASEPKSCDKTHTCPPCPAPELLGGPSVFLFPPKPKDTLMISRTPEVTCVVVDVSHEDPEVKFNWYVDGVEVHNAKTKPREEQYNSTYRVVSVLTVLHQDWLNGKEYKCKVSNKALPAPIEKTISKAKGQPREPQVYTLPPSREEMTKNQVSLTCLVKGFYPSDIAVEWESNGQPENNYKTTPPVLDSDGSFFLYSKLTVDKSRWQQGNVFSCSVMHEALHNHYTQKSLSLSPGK

Substance: Nivolumab (antibody)
- EC50 (read off the curve) [1]: 0.04 µg/mL
- Kd [2]: 21.2 pM
